{"source": "patent US10118965B2", "about": "“Compositions and methods related to anti-EGFR antibody drug conjugates” (LegoChem Biosciences, Inc., priority 2015, dated 2018)", "key": {"[1]": {"molecular_target": "epidermal growth factor receptor (EGFR) (human) (UniProt P00533)", "experiment": "flow cytometry on A431 cells, 0.5 µg/mL primary antibody, anti-human IgG1-PE secondary"}, "[2]": {"molecular_target": "epidermal growth factor receptor (EGFR) (human) (UniProt P00533)", "experiment": "flow cytometry on A431 cells, 2 µg/mL human IgG1 negative control, anti-human IgG1-PE secondary (cell only: 10.84)"}, "[3]": {"molecular_target": "epidermal growth factor receptor (EGFR) (human) (UniProt P00533)", "experiment": "flow cytometry on A431 cells, 2 µg/mL human IgG1 negative control, anti-human IgG1-PE secondary (cell only: 11.7)"}, "[4]": {"molecular_target": "epidermal growth factor receptor (EGFR) (human) (UniProt P00533)", "experiment": "flow cytometry on A431 cells, 2 µg/mL human IgG1 negative control, anti-human IgG1-PE secondary (cell only: 11.76)"}, "[5]": {"system": "MCF-7 cells", "experiment": "In vitro cytotoxicity, SRB assay, MCF-7 cells", "type": "cell-based", "conditions": "MCF7 (EGFR low), 72 hours", "procedure": "(§1) A431 cells, which express high levels of EGFR, and MCF-7 cells, which express low levels of EGFR, were plated at about 1000 cells per well in a 96-well plate in 100 μL of media. HCC-827 cells, which express an intermediate level of EGFR were plated at about 500 cells per well in a 96-well plate in 100 μL of media. The cells were incubated at 37° C. in 5% CO2 for 24 hours. […] The cells were incubated for 72 hours and then fixed for 1 hour at 4° C. after adding 100 μL of ice-cold 10% tricholoracetic acid to each well. Viable cells were counted using SRB dye (Sulphorhodamine, Sigma S 1402) and a Molecular Devices SpectraMax 190 plate reader running Softmax Pro v5, monitoring absorbance at 540 nm (FIG. 12)."}, "[6]": {"system": "HCC-827 cells", "experiment": "In vitro cytotoxicity, SRB assay, HCC-827 cells", "type": "cell-based", "conditions": "HCC-827 (EGFR Intermediate: del E746_A750), 72 hours", "procedure": "as §1"}, "[7]": {"system": "A431 cells", "experiment": "In vitro cytotoxicity, SRB assay, A431 cells", "type": "cell-based, human", "conditions": "A431 (EGFR high), 72 hours", "procedure": "as §1"}}, "note": "Where a SMILES comes first, the peptide text is derived from it. [ ]: non-standard residue; d: D form. Dolaproine = CO[C@@H]([C@@H]1CCCN1)[C@@H](C)C(=O)O; Dil = CC[C@H](C)[C@H](NC)[C@@H](CC(=O)O)OC; NMeV = CN[C@H](C(=O)O)C(C)C"}
{"compound": "Erbitux(LC)-G7CVIM (antibody)", "values": [{"measurement": "Geometric Mean (PE-A fluorescence)", "setting": "[1]", "value": 160}]}
{"compound": "Human IgG1 (antibody)", "values": [{"measurement": "Peak Channel (PE-A fluorescence)", "setting": "[2]", "value": 11.4}, {"measurement": "Geometric Mean (PE-A fluorescence)", "setting": "[3]", "value": 10.9}, {"measurement": "Median (PE-A fluorescence)", "setting": "[4]", "value": 11.4}]}
{"compound": "CC[C@H](C)[C@@H]([C@@H](CC(=O)N1CCC[C@H]1[C@H](OC)[C@@H](C)C(=O)N[C@@H](Cc1ccccc1)C(=O)OC)OC)N(C)C(=O)[C@@H](NC(=O)[C@@H](NC)C(C)C)C(C)C", "note": "[MMAF-Ome, monomethyl auristatin F-Ome] (H-[NMeV]V[Dil][Dolaproine]F-OMe)", "values": [{"measurement": "IC50", "setting": "[5]", "value": 1.81, "unit": "nM"}, {"measurement": "IC50", "setting": "[6]", "value": 1.99, "unit": "nM"}, {"measurement": "IC50", "setting": "[7]", "value": 1.11, "unit": "nM"}]}
